Assay results from US20100150860A1 (LUNAN PHARMACEUTICAL GROUP, published 2010).

B1: recombinant chimeric protein of neutrophil inhibitory factor and hirugen (TNHH), Met-NIF-GGGGG-FPRPGSGG-Hirugen (other)
chain: MNEHNLRCPQNGTEMPGFNDSIRLQFLAMHNGYRSKLALGHISITEESESDDDDDFGFLPDFAPRASKMRYLEYDCEAEKSAYMSARNCSDSSSPPEGYDENKYIFENSNNISEAALKAMISWAKEAFNLNKTKEGEGVLYRSNHDISNFANLAWDAREKFGCAVVNCPLGEIDDETNHDGETYATTIHVVCHYPKINKTEGQPIYKVGTPCDDCSEYTKKADNTTSADPVCIPDDGVCFIGSKADYDSKEFYRFRELGGGGGFPRPGSGGNGDFEEIPEEYL
B2: NIF-hirudin hybrid (NHH), NIF-(Gly)5-hirugen (other)
chain: NEHNLRCPQNGTEMPGFNDSIRLQFLAMHNGYRSKLALGHISITEESESDDDDDFGFLPDFAPRASKMRYLEYDCEAEKSAYMSARNCSDSSSPPEGYDENKYIFENSNNISEAALKAMISWAKEAFNLNKTKEGEGVLYRSNHDISNFANLAWDAREKFGCAVVNCPLGEIDDETNHDGETYATTIHVVCHYPKINKTEGQPIYKVGTPCDDCSEYTKKADNTTSADPVCIPDDGVCFIGSKADYDSKEFYRFRELGGGGGNGDFEEIPEEYL
B3: hirugen (printed 'Hirogen') (peptide)
peptide: NGDFEEIPEEYL
modifications: not fully specified
B4: TNHH-G15/n3, NIF-(Gly)15-FPRP-(GSGG)3-hirugen (other)
chain: MNEHNLRCPQNGTEMPGFNDSIRLQFLAMHNGYRSKLALGHISITEESESDDDDDFGFLPDFAPRASKMRYLEYDCEAEKSAYMSARNCSDSSSPPEGYDENKYIFENSNNISEAALKAMISWAKEAFNLNKTKEGEGVLYRSNHDISNFANLAWDAREKFGCAVVNCPLGEIDDETNHDGETYATTIHVVCHYPKINKTEGQPIYKVGTPCDDCSEYTKKADNTTSADPVCIPDDGVCFIGSKADYDSKEFYRFRELGGGGGGGGGGGGGGGFPRPGSGGGSGGGSGGNGDFEEIPEEYL

Each binder was assayed against thrombin (of the antithrombin activity assay, species not stated) (assay: cell-based or functional assay).

In order of falling “antithrombin activity (ATU/mg)” value:
1. B1  1200 ATU/mg
2. B4  1200 ATU/mg
3. B3  1000 ATU/mg
4. B2  800 ATU/mg
